Laboratory results from patent publication US12286624B2, “Method for generating a gene editing vector with fixed guide RNA pairs” (Johann Wolfgang Goethe-Universität Frankfurt am Main, priority 2018, dated 2025).

What was measured:
[1] = test system: GFP-expressing hTERT-RPE1 cells; assay: GFP depletion by FACS after lentiviral transduction with enhanced 3Cs fixed-pair gRNA constructs; assay type: cell-based, human; details: transduced 48 hours, then puromycin selection another 4 days
Experimental: (§1) GFP-expressing hTERT-RPE1 cells were transduced with them for 48 hours, after which a selection pressure (puromycin) for another 4 days was applied before the cells were analyzed by FACS and immunoblotting for which wildtype (wt) and GFP-positive cells (GFP) served as controls. […] In addition, GFP deletion efficiency was confirmed by immunoblotting of GFP, confirming the FACS finding (FIG. 15b). Fluorescent proteins expressed in human cells reflect an artificial situation, the inventors therefore asked if endogenously expressed genes in RPE1 cells would similarly be depleted more efficiently by two gRNAs. To address this question, RPE1 cells were transduced with fixed-pair gRNA constructs encoding for NHT/NHT, NHT/Cdk2, Cdk2/NHT, or Cdk2/Cdk2.
RPE1 cells were seeded at an appropriate density for each experiment with a maximal confluency of 60-70% in DMEM/F12 (Thermo Fisher Scientific), supplemented with 10% FBS and 1% penicillin-ptreptomycin (Sigma). At the day of transduction, polybrene was added to the media to a final concentration of 8 μg/mL, as well as viral supernatant according to the previously determined viral titer. The next morning, the media was replaced with fresh media and the cells were subjected to antibiotic selection or experimental analysis.
All samples were analyzed on a FACSCanto II flow cytometer (BD Biosciences), and data were processed by FlowJo software (FlowJo, LLC). Gating was carried out on the basis of viable and single cells that were identified on the basis of their scatter morphology.

Cdk2 = assay: Depletion of endogenous Cdk2 by fixed-pair gRNA constructs (immunoblot); assay type: cell-based, human; details: RPE1 cells, compared with either single gRNA
Experimental: as §1
Preparation of lysates and immunoblot analyses were performed as described previously using Tris lysis buffer (50 mM Tris-HCl (pH 7.8), 150 mM NaCl, 1% IGEPAL CA-630) containing 20 mM NaF, 20 mM β-glycerophosphate, 0.3 mM Na-vanadate, 20 μg/ml RNase A, 20 μg/ml DNase and 1/300 protease inhibitor cocktail (Sigma-Aldrich, P8340) and phosphatase inhibitor cocktail #2 (Sigma-Aldrich, P5726). […] Protein levels were visualized with Pierce ECL Western Blotting Substrate on a BioRad ChemiDoc MP imaging system and analyzed with Bio-Rad Image Lab software (version 4.1 build 16).

Molecule	GFP-positive cells by FACS [1]	depletion of endogenous Cdk2 (Cdk2)
NHT-GFP2: 3Cs fixed-pair construct of one NHT control gRNA and one GFP-targeting gRNA (nucleic acid) guide: GAAAGGACGAAACACCGGAAGGGCATCGACTTCAAGGGTTTTAGAGCTATGCTTTTTTAAAAAAGCATAGCTCTAAAACGCATGTTGTGGCGGATCTTGCGAGGTACCCAAGCG	strong reduction of GFP-positive cells	–
GFP2-GFP1: fixed-pair combination of two different GFP-targeting gRNAs (nucleic acid, expressed or natural sequence, fixed-pair combination of two different GFP-targeting gRNAs) guide: GAAAGGACGAAACACCGGAAGGGCATCGACTTCAAGGGTTTTAGAGCTATGCTTTTTTAAAAAAGCATAGCTCTAAAACCGATGTTGTGGCGGATCTTGCGAGGTACCCAAGCG	below the detection limit	–
Cdk2/Cdk2: fixed-pair gRNA construct with two gRNAs targeting Cdk2 (nucleic acid, expressed or natural sequence) guide: GAAAGGACGAAACACCGACAGGTTGCCAGTAAAAACAGTTTAGAGACGCTCGTCTCTAAACCTCCCGTCAACTTGTTTCTGCGAGGTACCCAAGCG	–	more efficiently depleted
GFP2-NHT: 3Cs fixed-pair construct of one GFP-targeting gRNA and one NHT control gRNA (nucleic acid) guide: GAAAGGACGAAACACCGTCAGGATCAGGGTGTATGGCGTTTTAGAGCTATGCTTTTTTAAAAAAGCATAGCTCTAAAACCGATGTTGTGGCGGATCTTGCGAGGTACCCAAGCG	strong reduction of GFP-positive cells	–
